Article PMC9482650, “Quantitative fragmentomics allow affinity mapping of interactomes” (Nature Communications, 2022)

T1: MPDZ_10, O75970
T1 sequence (O75970 1624-1722, limits assumed, looked up): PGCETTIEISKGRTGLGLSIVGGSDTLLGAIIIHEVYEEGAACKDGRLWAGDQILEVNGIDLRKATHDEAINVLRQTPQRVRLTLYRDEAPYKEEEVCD

T2: NHERF3_1, Q5T2W1
T2 sequence (Q5T2W1 4-100, limits assumed, looked up): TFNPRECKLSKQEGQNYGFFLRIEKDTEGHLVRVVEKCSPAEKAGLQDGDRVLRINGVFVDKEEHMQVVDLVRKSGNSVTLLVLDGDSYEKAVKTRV

T3: PDZRN3_1, Q9UPQ7
T3 sequence (Q9UPQ7 244-349, limits assumed, looked up): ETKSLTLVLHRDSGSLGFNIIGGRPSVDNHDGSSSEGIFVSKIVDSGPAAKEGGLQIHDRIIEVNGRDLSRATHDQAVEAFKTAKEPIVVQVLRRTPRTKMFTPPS

T4: SNTG2, Q9NY99
T4 sequence (Q9NY99 68-166, limits assumed, looked up): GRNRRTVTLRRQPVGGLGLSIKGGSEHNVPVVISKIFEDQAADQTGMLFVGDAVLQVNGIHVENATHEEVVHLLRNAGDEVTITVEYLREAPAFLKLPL

T5: DLG3_3, Q92796
T5 sequence (Q92796 374-475, limits assumed, looked up): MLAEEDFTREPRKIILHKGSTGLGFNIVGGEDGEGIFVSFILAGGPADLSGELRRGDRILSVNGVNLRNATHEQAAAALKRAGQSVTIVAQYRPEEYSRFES

T6: APBA2_1, Q99767
T6 sequence (Q99767 563-664, limits assumed, looked up): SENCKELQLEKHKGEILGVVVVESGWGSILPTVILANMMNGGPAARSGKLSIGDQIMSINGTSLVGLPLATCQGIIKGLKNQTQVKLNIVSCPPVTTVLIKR

T7: TIAM2, Q8IVF5
T7 sequence (Q8IVF5 885-986, limits assumed, looked up): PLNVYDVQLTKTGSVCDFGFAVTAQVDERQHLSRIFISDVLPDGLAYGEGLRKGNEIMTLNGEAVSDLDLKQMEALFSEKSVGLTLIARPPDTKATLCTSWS

T8: APBA1_2, Q02410
T8 sequence (Q02410 742-832, limits assumed, looked up): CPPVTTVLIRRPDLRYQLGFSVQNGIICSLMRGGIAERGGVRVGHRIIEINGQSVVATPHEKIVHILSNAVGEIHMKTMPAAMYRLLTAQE

T9: PTPN13_1, Q12923
T9 sequence (Q12923 1088-1188, limits assumed, looked up): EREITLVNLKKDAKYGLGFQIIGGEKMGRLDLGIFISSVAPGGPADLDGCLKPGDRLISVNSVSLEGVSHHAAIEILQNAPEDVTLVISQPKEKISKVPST

T10: PARD3B_1, Q8TEW8
T10 sequence (Q8TEW8 196-299, limits assumed, looked up): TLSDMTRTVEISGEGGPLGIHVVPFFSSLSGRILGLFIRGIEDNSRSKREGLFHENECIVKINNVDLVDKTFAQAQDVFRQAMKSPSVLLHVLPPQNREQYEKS


Target: T1, MPDZ_10, O75970
Assay: holdup assay
Design: key: below the threshold = too weak to quantify, mostly under pKd 3.1 to 4
Conditions: plain residues with an end cap or a label only (N-terminal biotin on a linker: ado-ado)

Binder	pKd
FNSYSLTGYV [CLDN2, P57739]	below the threshold
VKPQVSESKL [ACOT8, O14734]	below the threshold
PRAEAEDSFL [PDGFRB, P09619]	below the threshold

Target: GRIP2_6, Q9C0E4
Sequence (Q9C0E4 648-740): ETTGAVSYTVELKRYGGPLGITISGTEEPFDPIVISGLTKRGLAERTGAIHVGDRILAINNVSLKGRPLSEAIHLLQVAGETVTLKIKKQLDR
Assay: holdup assay
Design: key: below the threshold = too weak to quantify, mostly under pKd 3.1 to 4
Conditions: plain residues with an end cap or a label only (N-terminal biotin on a linker: ado-ado)

Binder	pKd
FNSYSLTGYV [CLDN2, P57739]	below the threshold
VKPQVSESKL [ACOT8, O14734]	below the threshold
PRAEAEDSFL [PDGFRB, P09619]	below the threshold

Target: GRIP2_3, Q9C0E4
Sequence (Q9C0E4 238-339): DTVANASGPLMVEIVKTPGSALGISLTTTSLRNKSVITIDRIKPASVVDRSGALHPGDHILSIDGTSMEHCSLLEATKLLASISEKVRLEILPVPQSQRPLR
Assay: holdup assay
Design: key: below the threshold = too weak to quantify, mostly under pKd 3.1 to 4
Conditions: plain residues with an end cap or a label only (N-terminal biotin on a linker: ado-ado)

Binder	pKd
FNSYSLTGYV [CLDN2, P57739]	below the threshold
VKPQVSESKL [ACOT8, O14734]	below the threshold
PRAEAEDSFL [PDGFRB, P09619]	below the threshold

Target: PARD3_3, Q8TEW0
Sequence (Q8TEW0 582-685): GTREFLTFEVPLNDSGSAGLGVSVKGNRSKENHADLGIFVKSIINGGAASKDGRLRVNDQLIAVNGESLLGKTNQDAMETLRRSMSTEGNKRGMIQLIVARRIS
Assay: holdup assay
Design: key: below the threshold = too weak to quantify, mostly under pKd 3.1 to 4
Conditions: plain residues with an end cap or a label only (N-terminal biotin on a linker: ado-ado)

Binder	pKd
FNSYSLTGYV [CLDN2, P57739]	4.04
VKPQVSESKL [ACOT8, O14734]	below the threshold
PRAEAEDSFL [PDGFRB, P09619]	4.11

Target: LNX1_2, Q8TBB1
Sequence (Q8TBB1 371-470): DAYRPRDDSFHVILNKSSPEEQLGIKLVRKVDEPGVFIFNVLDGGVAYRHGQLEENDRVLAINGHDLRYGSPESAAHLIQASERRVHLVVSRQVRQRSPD
Assay: holdup assay
Design: key: below the threshold = too weak to quantify, mostly under pKd 3.1 to 4
Conditions: plain residues with an end cap or a label only (N-terminal biotin on a linker: ado-ado)

Binder	pKd
FNSYSLTGYV [CLDN2, P57739]	4.19
VKPQVSESKL [ACOT8, O14734]	below the threshold
PRAEAEDSFL [PDGFRB, P09619]	below the threshold

Target: GORASP1, Q9BQQ3
Sequence (Q9BQQ3 1-208): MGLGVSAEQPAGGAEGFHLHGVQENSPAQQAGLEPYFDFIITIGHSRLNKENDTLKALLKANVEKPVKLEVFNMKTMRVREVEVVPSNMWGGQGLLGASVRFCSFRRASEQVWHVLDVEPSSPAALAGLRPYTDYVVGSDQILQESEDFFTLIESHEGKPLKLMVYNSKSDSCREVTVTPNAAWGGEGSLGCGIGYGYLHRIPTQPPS
Assay: holdup assay
Design: key: below the threshold = too weak to quantify, mostly under pKd 3.1 to 4
Conditions: plain residues with an end cap or a label only (N-terminal biotin on a linker: ado-ado)

Binder	pKd
FNSYSLTGYV [CLDN2, P57739]	4.14
VKPQVSESKL [ACOT8, O14734]	below the threshold
PRAEAEDSFL [PDGFRB, P09619]	3.57

Target: T2, NHERF3_1, Q5T2W1
Assay: holdup assay
Design: key: below the threshold = too weak to quantify, mostly under pKd 3.1 to 4
Conditions: plain residues with an end cap or a label only (N-terminal biotin on a linker: ado-ado)

Binder	pKd
FNSYSLTGYV [CLDN2, P57739]	4.35
VKPQVSESKL [ACOT8, O14734]	5.33
PRAEAEDSFL [PDGFRB, P09619]	4.76

Target: CASK, O14936
Sequence (O14936 487-570): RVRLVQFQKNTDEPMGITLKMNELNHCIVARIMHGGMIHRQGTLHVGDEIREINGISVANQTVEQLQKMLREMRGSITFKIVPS
Assay: holdup assay
Design: key: below the threshold = too weak to quantify, mostly under pKd 3.1 to 4
Conditions: plain residues with an end cap or a label only (N-terminal biotin on a linker: ado-ado)

Binder	pKd
FNSYSLTGYV [CLDN2, P57739]	below the threshold
VKPQVSESKL [ACOT8, O14734]	below the threshold
PRAEAEDSFL [PDGFRB, P09619]	below the threshold

Target: NHERF2_2, Q15599
Sequence (Q15599 142-238): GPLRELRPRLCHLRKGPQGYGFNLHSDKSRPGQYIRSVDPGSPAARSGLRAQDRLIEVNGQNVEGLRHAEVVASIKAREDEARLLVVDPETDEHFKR
Assay: holdup assay
Design: key: below the threshold = too weak to quantify, mostly under pKd 3.1 to 4
Conditions: plain residues with an end cap or a label only (N-terminal biotin on a linker: ado-ado)

Binder	pKd
FNSYSLTGYV [CLDN2, P57739]	below the threshold
VKPQVSESKL [ACOT8, O14734]	4.56
PRAEAEDSFL [PDGFRB, P09619]	5.05

Target: GRIP2_5, Q9C0E4
Sequence (Q9C0E4 544-642): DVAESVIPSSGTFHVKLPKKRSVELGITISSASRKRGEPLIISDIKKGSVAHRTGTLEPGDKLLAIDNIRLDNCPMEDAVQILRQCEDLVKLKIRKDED
Assay: holdup assay
Design: key: below the threshold = too weak to quantify, mostly under pKd 3.1 to 4
Conditions: plain residues with an end cap or a label only (N-terminal biotin on a linker: ado-ado)

Binder	pKd
FNSYSLTGYV [CLDN2, P57739]	below the threshold
VKPQVSESKL [ACOT8, O14734]	below the threshold
PRAEAEDSFL [PDGFRB, P09619]	below the threshold

Target: T3, PDZRN3_1, Q9UPQ7
Assay: holdup assay
Design: key: below the threshold = too weak to quantify, mostly under pKd 3.1 to 4
Conditions: plain residues with an end cap or a label only (N-terminal biotin on a linker: ado-ado)

Binder	pKd
FNSYSLTGYV [CLDN2, P57739]	below the threshold
VKPQVSESKL [ACOT8, O14734]	3.68
PRAEAEDSFL [PDGFRB, P09619]	3.7

Target: T4, SNTG2, Q9NY99
Assay: holdup assay
Design: key: below the threshold = too weak to quantify, mostly under pKd 3.1 to 4
Conditions: plain residues with an end cap or a label only (N-terminal biotin on a linker: ado-ado)

Binder	pKd
FNSYSLTGYV [CLDN2, P57739]	below the threshold
VKPQVSESKL [ACOT8, O14734]	4.19
PRAEAEDSFL [PDGFRB, P09619]	below the threshold

Target: HTRA2, O43464
Sequence (O43464 355-458): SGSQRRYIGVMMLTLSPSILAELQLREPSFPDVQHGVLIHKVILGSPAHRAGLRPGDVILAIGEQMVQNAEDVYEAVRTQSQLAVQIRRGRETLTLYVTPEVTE
Assay: holdup assay
Design: key: below the threshold = too weak to quantify, mostly under pKd 3.1 to 4
Conditions: plain residues with an end cap or a label only (N-terminal biotin on a linker: ado-ado)

Binder	pKd
FNSYSLTGYV [CLDN2, P57739]	4.48
VKPQVSESKL [ACOT8, O14734]	below the threshold
PRAEAEDSFL [PDGFRB, P09619]	below the threshold

Target: LNX1_1, Q8TBB1
Sequence (Q8TBB1 261-371): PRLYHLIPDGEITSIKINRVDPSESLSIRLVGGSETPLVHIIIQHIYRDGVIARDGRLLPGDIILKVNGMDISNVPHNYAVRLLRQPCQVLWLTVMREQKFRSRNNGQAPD
Assay: holdup assay
Design: key: below the threshold = too weak to quantify, mostly under pKd 3.1 to 4
Conditions: plain residues with an end cap or a label only (N-terminal biotin on a linker: ado-ado)

Binder	pKd
FNSYSLTGYV [CLDN2, P57739]	3.94
VKPQVSESKL [ACOT8, O14734]	below the threshold
PRAEAEDSFL [PDGFRB, P09619]	3.83

Target: T5, DLG3_3, Q92796
Assay: holdup assay
Design: key: below the threshold = too weak to quantify, mostly under pKd 3.1 to 4
Conditions: plain residues with an end cap or a label only (N-terminal biotin on a linker: ado-ado)

Binder	pKd
FNSYSLTGYV [CLDN2, P57739]	below the threshold
VKPQVSESKL [ACOT8, O14734]	below the threshold
PRAEAEDSFL [PDGFRB, P09619]	below the threshold

Target: LAP2, Q96RT1
Sequence (Q96RT1 other isoform, or with tags, fused parts or gaps): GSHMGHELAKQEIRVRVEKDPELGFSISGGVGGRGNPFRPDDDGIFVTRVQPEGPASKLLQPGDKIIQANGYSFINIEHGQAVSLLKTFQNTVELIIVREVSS
Assay: holdup assay
Design: key: below the threshold = too weak to quantify, mostly under pKd 3.1 to 4
Conditions: plain residues with an end cap or a label only (N-terminal biotin on a linker: ado-ado)

Binder	pKd
FNSYSLTGYV [CLDN2, P57739]	below the threshold
VKPQVSESKL [ACOT8, O14734]	below the threshold
PRAEAEDSFL [PDGFRB, P09619]	3.53

Target: T6, APBA2_1, Q99767
Assay: holdup assay
Design: key: below the threshold = too weak to quantify, mostly under pKd 3.1 to 4
Conditions: plain residues with an end cap or a label only (N-terminal biotin on a linker: ado-ado)

Binder	pKd
FNSYSLTGYV [CLDN2, P57739]	below the threshold
VKPQVSESKL [ACOT8, O14734]	below the threshold
PRAEAEDSFL [PDGFRB, P09619]	3.66

Target: T7, TIAM2, Q8IVF5
Assay: holdup assay
Design: key: below the threshold = too weak to quantify, mostly under pKd 3.1 to 4
Conditions: plain residues with an end cap or a label only (N-terminal biotin on a linker: ado-ado)

Binder	pKd
FNSYSLTGYV [CLDN2, P57739]	3.94
VKPQVSESKL [ACOT8, O14734]	4.03
PRAEAEDSFL [PDGFRB, P09619]	below the threshold

Target: FRMPD2_2, Q68DX3
Sequence (Q68DX3 944-1038): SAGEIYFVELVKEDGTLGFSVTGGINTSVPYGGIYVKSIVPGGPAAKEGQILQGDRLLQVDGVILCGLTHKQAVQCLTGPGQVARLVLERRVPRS
Assay: holdup assay
Design: key: below the threshold = too weak to quantify, mostly under pKd 3.1 to 4
Conditions: plain residues with an end cap or a label only (N-terminal biotin on a linker: ado-ado)

Binder	pKd
FNSYSLTGYV [CLDN2, P57739]	below the threshold
VKPQVSESKL [ACOT8, O14734]	below the threshold
PRAEAEDSFL [PDGFRB, P09619]	3.52

Target: GRIP2_4, Q9C0E4
Sequence (Q9C0E4 446-548): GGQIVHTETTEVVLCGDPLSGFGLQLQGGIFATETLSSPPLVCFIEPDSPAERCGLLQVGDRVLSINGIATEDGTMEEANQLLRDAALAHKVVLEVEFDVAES
Assay: holdup assay
Design: key: below the threshold = too weak to quantify, mostly under pKd 3.1 to 4
Conditions: plain residues with an end cap or a label only (N-terminal biotin on a linker: ado-ado)

Binder	pKd
FNSYSLTGYV [CLDN2, P57739]	below the threshold
VKPQVSESKL [ACOT8, O14734]	below the threshold
PRAEAEDSFL [PDGFRB, P09619]	below the threshold

Target: T8, APBA1_2, Q02410
Assay: holdup assay
Design: key: below the threshold = too weak to quantify, mostly under pKd 3.1 to 4
Conditions: plain residues with an end cap or a label only (N-terminal biotin on a linker: ado-ado)

Binder	pKd
FNSYSLTGYV [CLDN2, P57739]	4
VKPQVSESKL [ACOT8, O14734]	below the threshold
PRAEAEDSFL [PDGFRB, P09619]	3.65

Target: T9, PTPN13_1, Q12923
Assay: holdup assay
Design: key: below the threshold = too weak to quantify, mostly under pKd 3.1 to 4
Conditions: plain residues with an end cap or a label only (N-terminal biotin on a linker: ado-ado)

Binder	pKd
FNSYSLTGYV [CLDN2, P57739]	below the threshold
VKPQVSESKL [ACOT8, O14734]	below the threshold
PRAEAEDSFL [PDGFRB, P09619]	below the threshold

Target: MAGI1_1, Q96QZ7
Sequence (Q96QZ7 1-106): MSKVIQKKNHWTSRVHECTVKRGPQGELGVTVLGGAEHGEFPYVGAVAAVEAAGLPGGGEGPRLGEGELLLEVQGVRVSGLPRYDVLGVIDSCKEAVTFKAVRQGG
Assay: holdup assay
Design: key: below the threshold = too weak to quantify, mostly under pKd 3.1 to 4
Conditions: plain residues with an end cap or a label only (N-terminal biotin on a linker: ado-ado)

Binder	pKd
FNSYSLTGYV [CLDN2, P57739]	below the threshold
VKPQVSESKL [ACOT8, O14734]	below the threshold
PRAEAEDSFL [PDGFRB, P09619]	3.58

Target: FRMPD2_3, Q68DX3
Sequence (Q68DX3 1073-1166): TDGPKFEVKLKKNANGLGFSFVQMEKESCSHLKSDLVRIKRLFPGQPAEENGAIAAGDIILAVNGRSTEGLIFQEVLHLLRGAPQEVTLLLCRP
Assay: holdup assay
Design: key: below the threshold = too weak to quantify, mostly under pKd 3.1 to 4
Conditions: plain residues with an end cap or a label only (N-terminal biotin on a linker: ado-ado)

Binder	pKd
FNSYSLTGYV [CLDN2, P57739]	4.28
VKPQVSESKL [ACOT8, O14734]	below the threshold
PRAEAEDSFL [PDGFRB, P09619]	3.51

Target: TJP1_3, Q07157
Sequence (Q07157 416-512): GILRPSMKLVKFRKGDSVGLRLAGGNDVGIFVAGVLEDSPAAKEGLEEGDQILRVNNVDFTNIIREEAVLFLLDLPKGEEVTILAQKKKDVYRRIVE
Assay: holdup assay
Design: key: below the threshold = too weak to quantify, mostly under pKd 3.1 to 4
Conditions: plain residues with an end cap or a label only (N-terminal biotin on a linker: ado-ado)

Binder	pKd
FNSYSLTGYV [CLDN2, P57739]	3.63
VKPQVSESKL [ACOT8, O14734]	below the threshold
PRAEAEDSFL [PDGFRB, P09619]	below the threshold

Target: Inadl_2, Q8NI35
Sequence (Q8NI35 238-335): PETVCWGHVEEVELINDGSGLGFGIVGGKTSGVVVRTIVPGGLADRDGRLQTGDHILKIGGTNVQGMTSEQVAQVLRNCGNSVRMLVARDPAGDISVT
Assay: holdup assay
Design: key: below the threshold = too weak to quantify, mostly under pKd 3.1 to 4
Conditions: plain residues with an end cap or a label only (N-terminal biotin on a linker: ado-ado)

Binder	pKd
FNSYSLTGYV [CLDN2, P57739]	below the threshold
VKPQVSESKL [ACOT8, O14734]	below the threshold
PRAEAEDSFL [PDGFRB, P09619]	below the threshold

Target: T10, PARD3B_1, Q8TEW8
Assay: holdup assay
Design: key: below the threshold = too weak to quantify, mostly under pKd 3.1 to 4
Conditions: plain residues with an end cap or a label only (N-terminal biotin on a linker: ado-ado)

Binder	pKd
FNSYSLTGYV [CLDN2, P57739]	4.42
VKPQVSESKL [ACOT8, O14734]	3.69
PRAEAEDSFL [PDGFRB, P09619]	4.55
